Here are results for 1 molecule from patent CN111848800A (SANYOU BIOPHARMACEUTICALS CO LTD, dated 2020).

Test [1] concerns the target T1, 恒河猴PD-L1 (全长蛋白, on CHO-s cells) (rhesus monkey, UniProt F6VEW6 19-290).
T1 construct: whole, on cells; also called 猴PD-L1-CHO
The experiment in a line: FACS on monkey PD-L1-CHO cells.

Test [2] has as its target T2, 鼠PD-L1 (全长蛋白, on CHO-s cells) (mouse, UniProt Q9EP73 19-290).
T2 construct: whole, on cells; also called 小鼠PD-L1-CHO; 鼠PD-L1-CHO
Put plainly: FACS on mouse PD-L1-CHO cells, PE anti-human IgG Fc.

The target in test [3] is T3, 人PD-L1 (全长蛋白, on cells) (human, UniProt Q9NZQ7 19-290).
T3 construct: whole, on cells; also called 人PD-L1-CHO; PD-L1-CHO
T3 sequence (Q9NZQ7 19-290): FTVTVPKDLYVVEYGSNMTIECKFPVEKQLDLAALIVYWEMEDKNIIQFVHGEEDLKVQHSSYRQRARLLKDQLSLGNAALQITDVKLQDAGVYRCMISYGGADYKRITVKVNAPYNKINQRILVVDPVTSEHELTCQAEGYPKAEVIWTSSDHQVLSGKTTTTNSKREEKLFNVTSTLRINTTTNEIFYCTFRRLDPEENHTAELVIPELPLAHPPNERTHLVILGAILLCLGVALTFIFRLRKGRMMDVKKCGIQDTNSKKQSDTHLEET
The experiment in a line: FACS on human PD-L1-CHO cells, PE anti-human IgG Fc.

For test [4], the target named is T3, 人PD-L1 (全长蛋白, on cells). The experiment in a line: FACS competition on human PD-L1-CHO cells against biotin CD80 (1 μg/mL).
For test [5], the target named is T3, 人PD-L1 (全长蛋白, on cells). The experiment in a line: FACS competition on human PD-L1-CHO cells against biotin PD-1-Fc (1 μg/mL).
Test [6] addresses T4, B7-H2 recombinant protein (义翘神州 11559-H08H) (UniProt O75144 19-258).
T4 sequence (looked up): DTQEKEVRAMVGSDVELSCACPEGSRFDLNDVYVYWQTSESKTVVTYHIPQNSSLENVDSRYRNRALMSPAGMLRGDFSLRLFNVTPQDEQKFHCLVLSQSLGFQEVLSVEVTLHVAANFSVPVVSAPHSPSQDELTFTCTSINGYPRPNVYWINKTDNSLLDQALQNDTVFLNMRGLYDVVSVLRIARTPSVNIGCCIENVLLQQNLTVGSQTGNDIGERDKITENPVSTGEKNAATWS
Put plainly: ELISA, protein coated at 2 μg/mL, anti-human IgG Fc-HRP; N/A means 未检出结合活性. In general terms: ELISA stands for enzyme-linked immunosorbent assay.

Test [7] concerns the target T5, B7-H3 recombinant protein (义翘神州 11188-H08H) (UniProt Q5ZPR3 29-461).
T5 sequence (looked up): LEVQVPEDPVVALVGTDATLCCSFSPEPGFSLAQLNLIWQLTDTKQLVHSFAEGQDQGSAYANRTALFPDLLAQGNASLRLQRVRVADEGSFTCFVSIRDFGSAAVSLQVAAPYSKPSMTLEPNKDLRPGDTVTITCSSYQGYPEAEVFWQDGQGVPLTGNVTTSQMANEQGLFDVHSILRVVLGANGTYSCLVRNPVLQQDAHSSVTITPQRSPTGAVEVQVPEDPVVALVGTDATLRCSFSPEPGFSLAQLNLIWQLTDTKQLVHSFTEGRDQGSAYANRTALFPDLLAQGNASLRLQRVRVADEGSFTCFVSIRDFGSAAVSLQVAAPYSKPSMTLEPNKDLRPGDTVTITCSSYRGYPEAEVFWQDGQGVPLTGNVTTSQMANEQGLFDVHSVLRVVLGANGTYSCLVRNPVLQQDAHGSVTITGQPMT
The test is described as above.

Test [8] addresses T6, B7-H4 recombinant protein (义翘神州 10738-H08H) (UniProt Q7Z7D3 25-258).
T6 sequence (looked up): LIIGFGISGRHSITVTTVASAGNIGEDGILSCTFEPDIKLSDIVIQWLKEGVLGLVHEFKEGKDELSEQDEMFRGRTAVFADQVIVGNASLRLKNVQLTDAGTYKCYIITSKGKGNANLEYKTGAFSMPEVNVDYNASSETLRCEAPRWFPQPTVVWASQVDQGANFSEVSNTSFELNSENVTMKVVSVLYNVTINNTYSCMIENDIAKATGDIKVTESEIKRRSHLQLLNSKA
The description is as above.

Test [9] has as its target T7, B7-DC recombinant protein (义翘神州 10292-H08H-B) (UniProt Q9BQ51 20-219).
T7 sequence (looked up): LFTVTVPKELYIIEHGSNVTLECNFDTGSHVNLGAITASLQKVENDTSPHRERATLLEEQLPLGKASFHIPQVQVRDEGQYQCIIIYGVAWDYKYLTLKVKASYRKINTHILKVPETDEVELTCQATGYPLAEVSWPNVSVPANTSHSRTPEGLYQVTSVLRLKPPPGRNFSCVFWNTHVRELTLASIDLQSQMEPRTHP
Described as above.

T2 sequence (Q9EP73 19-290): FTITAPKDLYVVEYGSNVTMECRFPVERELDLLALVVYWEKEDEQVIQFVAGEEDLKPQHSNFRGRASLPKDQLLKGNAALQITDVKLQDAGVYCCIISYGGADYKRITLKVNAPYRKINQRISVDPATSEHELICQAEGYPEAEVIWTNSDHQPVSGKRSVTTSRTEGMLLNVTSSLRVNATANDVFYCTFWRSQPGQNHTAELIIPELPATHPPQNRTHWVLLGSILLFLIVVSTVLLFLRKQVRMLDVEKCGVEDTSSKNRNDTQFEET

B1: KN035 (Fc fusion)
chain: QVQLVESGGGLVQPGGSLRLSCAASGFTFSRRCKAWFRQAPGKERERVAKILTTSGSTYLADSVKGRFTISRDNSKNTVYLQMNSLRAEDTAVYYCAADSFEDPTCTLVTSSGAFQYWGQGTLVTVSS
notes: Control antibody made from the synthesised whole gene in ExpiCHO; the molecule is detected with anti-human IgG Fc; also called KN035(对照); 对照抗体KN035
Turning to B1, the values for the EC50 in test [1] and in [3] were 0.21 µg/mL and 0.39 µg/mL, respectively. For the same molecule, the binding result is given as “no binding (tested: 20μg/mL)” in test [2]; “no binding” in [6]; “no binding” in test [7]; “no binding” in test [8]; “no binding” in test [9]. Besides, the results for the IC50 in test [4] and in test [5] were 0.631 µg/mL and 0.39 µg/mL, respectively.
